Source: the DeepSol protein solubility set

experiment: soluble on expression in E. coli; label from the status in PepcDB or PDB records

Soluble on expression in E. coli, not soluble:
MKRDARDAPKSITLGFEADCVTLPIDAILPLRALGKSAKSSRKYRQIAASIAQIGIVEPPVVVRNPDRSATWLLLDGHMRIEALKDAGGSEVECLVSTDDEAFTYNRQISRLAPIQEHKMIRKAIERGVPEEKIALALDLNMSSIRRKARLLDGICEEAVAILKDKPCTNAVFDALRKMRTMRQIEAAELLVNANNYSVAYVNAILAGTPQAQLVESSKPKKVKGITPDAMARMEQELARLQEGIASIQDTYGEDHLHLTVIKGYVGKLLGNARVVRYLAQNHPEFLGEFQTITEITPAEADAAE, SYSYVYIYMPTWREDKRNILEIIDFDRLNQLCIKNNNLFLFRLHPNTEINLDMLVSYSNLRIIDSSCDIYPILPFTDVLITDYSSIYYDYMLIPNKQILLFPFDEEEYCTFNRDLAFDYKIYTPGIRIYSFEALLEIVESKKNLNIKEIKVIKKLFWKGRNESIIDRIIN, MAHHHHHHMLRYTPMWRCSAAAMQTLSAWLTDLAEESMAVPSATAADLQTRQNDGQGPTRKTPAQLWRELEDAATHANALRETDTLFSILQCLLLKQQYPTDVHAWARLAKQLLPYSGIEQKSVLHYPGRSDASYRRDGHPGGSSLANLSSSSDPVLTDADGGFGDDGASRRGGGGARRGGEYAVPYSLYPSRETLLLSGGVVPLSARVPCGDGRAISLFVRGFTRFVEGQLGVQPHTQLTSELLQVVKDVSGAVTEALAVNADSLQLELLLPALLDYMELLHVLDLRTATVAACGPLATEEERRDAAGATVRDDEPNGHGRSSPPRPSKPTRFLQNMVHDLAQNAMAGAARGARVVLYYLNECFAAVVEAYQADAAATFTDKMYWAQQRYLLTLTRACMWAISQHYTSATTAALSAASGSVASSPSPHVQGLRPTVATADLVATAPMNAHIQALYDHIDVLFQRNTHADNPLHLTDEEVAQLKEIHTAALLRALRIEEAAPDAYLRRALEVVDRVPASMAIEGELIAGKVRLLELDSDTVDEEGRAAIYDDLLTSLRSLVEMRPRFLRHNGAHHAAGGGAAAAASASTPADGGGGGGEEDEGDGEQLRLDAATQAILQRAHFDVITAFCAAHKEEWSNEAYNILVAHKYHGVKITNDLIRPVLEVFSRRGDCRVFSLVDLCVLYSNEPIDMHTIALLFRTCAAAGDHHRARTFLQLVNEIIHGFLVKCPASVKESLQELKLLDPPPRHLFVSTEDDLVQSALGEQQRTVRRLPTGS, SLDTTRPLSWDFQSQLMSNLKILYCLNMLKLSNWYFGGIMKVYGLFGINENAINDFIENHIKTFTIINALNLETVKNLKEGDLVFITSTLREDLRNGTEGILGRVINVSLVPQMINGFEEKEIIAGRVQLEMLGFAKCVKYESIHVEITFRMY, MTTHEKVILVGVETEKNYQTFSASMEELANLTETANGEVVFVLTQKRPQVDRQTVIGKGKLEELIQLTDAYEADLVIFNHELTPRQNQLLSEALAVRVIDRVQLILDIFALRARSKEGKLQVELAQLDYLLPRLAGQGKQLSRLGGGIGTRGPGETKLESDRRHIRNKILGIRRELKEVTAHRERSRQKRQNSELFQIGLIGYTNAGKSTILNMLTTAGTYSEDQLFATLDPLTKKWQLPQGMEVTLTDTVGFIQDLPTQLIEAFQSTLEESRTMDLLLHVVDASAPDRLQHERTVQTLMKELALENIPCLTVYNKRDQVDSKEFVPTLFPNVLISTKISEDKERLVQAIRAQMMELLEPYQLEISPTDGQLLSELRRMTLMISEEYAENENRYIVKGFAKKKSKWLAESEKEAAALEHHHHHH, MGSDKIHHHHHHMPRPRRSQVSVEDTPMYHCCSRVVRRAYLCGDDKFSGKNYDHRRGWVEAQLLKLAEVFAIDVAAYAVMSNHLHVVLSIDIYQANRWTGIEVINQWHLLFKGTDITQKFAKGETLEDYEALELTYTIALYRSRLSDISWFMRALNEPIARRANEEDECTGRFWEGRFKSQALLDEAAVLACMVYVDLNPIRSTIAKTPETSDFTSIKRRITAALNGTQPKALLPFVGNERKDMPKGLTFHLKDYLQLVEDTGKAVRNDKRGCISPNSHSILNRLNIPADNWLKIINEFGKLFKGPVGTLQELTAYCEHLEKQRRHYCHACQHLAAS, MSKSQYKMSKITYASGKMRPPSLIQKLNVYKPFLLIVDINSTNFALVGNGEILGHLFYRQNSPSYTQIKSRLVIYPKCCKLYSEDIAIPLHDWKIENLGAIKLLTKHNSLKTGTLHQIDKTMMLVYMAAFGEDSGVRSKISKPHGKTATWRNQHDLFMQ, AKFREIANIALGKGAAIMADHLHEFIQLPVPHVGPLSYGELHMTLVDVIGRDSSVAVSQRFVGGGIHGEALVCLRGKDINQIGERLGYLLEFTPHNEIILNVSNLLVSSFLTSLGNQLDKQFSLRQPGIVDTITPYNEEQGESGELFTIEYTYMAEALDFECEVLFLIDKPSVEIIYEIMELI
